± gives the standard deviation of the averaged measurements.
Each sequence was assayed on ATP (assay: switch fluorescence ratio, 500 uM ATP over buffer (Cy3 cluster intensity, sum of 5 cycles each) (fold (ratio)); higher = stronger signal-on switching upon ATP binding; sequences stand for … in TCGTCGGCAGCGTCAGATGTGTATAAGAGACAGTTTTTTTTTTTTTTTTTTTTTTTTT…TC). Details: aptamer strand: ATP DNA aptamer (quencher-CACCTGGGGGAGTATTGCGGAGGAAGG + anchor), 100 nM annealed; ATP concentration: 500 uM.
Procedure, shortened: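 Clusters with intensities outside 100-1000 RFU were excluded. The remaining Cy3-labelled switching-strand clusters on a modified Illumina MiSeq flow-cell had been annealed to 100 nM quencher-labelled ATP aptamer and imaged in selection buffer, then after 15 min with 500 uM ATP at 22 °C, for five cycles separated by NaOH stripping and re-annealing. The fluorescence ratio, averaged per switch-domain sequence, is each cluster's summed target-cycle Cy3 intensity over its summed buffer-cycle Cy3 intensity.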
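Note: ATP exposure 15 min at 22 °C before imaging.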

| Sequence | switch fluorescence ratio |
| --- | --- |
| GATTGTAATA | 1.01 ± 0.034 |
| GATTGTAGTT | 0.9586 ± 0.0034 |
| GATTGTGAT | 1.01 ± 0.04 |
| GATTGTTCTC | 0.981 ± 0.011 |
| GATTGTTGGA | 1.02 ± 0.037 |
| GATTGTTTGT | 1.03 ± 0.067 |
| GATTGTTTTG | 1.01 ± 0.034 |
| GATTTACGTG | 1.02 ± 0.012 |
| GATTTAGGCA | 0.986 ± 0.015 |
| GATTTAGGTT | 0.999 ± 0.015 |
| GATTTATAAT | 1.014 ± 0.0029 |
| GATTTCCAGG | 1.2 ± 0.024 |
| GATTTCCGTG | 0.98686 ± 0.00065 |
| GATTTCGATT | 0.969 ± 0.012 |
| GATTTCTGCT | 0.974 ± 0.021 |
| GATTTGCAGA | 1 ± 0.024 |
| GATTTGCCGG | 0.995 ± 0.013 |
| GATTTGCCTG | 0.968 ± 0.036 |
| GATTTGGGAC | 1.03 ± 0.05 |
| GATTTGGGGA | 0.988 ± 0.028 |
| GATTTGGTGT | 1.03 ± 0.057 |
| GATTTGTGCA | 0.9952 ± 0.0014 |
| GATTTTACTT | 1.03 ± 0.015 |
| GATTTTGCCA | 0.9675 ± 0.0045 |
| GATTTTGGCC | 0.959 ± 0.037 |

| Sequence | switch fluorescence ratio |
| --- | --- |
| GATTTTGGTT | 0.998 ± 0.014 |
| GATTTTGTAC | 1.012 ± 0.0043 |
| GATTTTTAGC | 1 ± 0.065 |
| GATTTTTGGT | 0.995 ± 0.028 |
| GATTTTTTGT | 0.99 ± 0.028 |
| GATTTTTTTC | 0.98 ± 0.05 |
| GCAAAAATGG | 1.02 ± 0.038 |
| GCAAAACGTA | 1.012 ± 0.009 |
| GCAAAAGGTT | 1.01 ± 0.022 |
| GCAAAATCTG | 1.04 ± 0.06 |
| GCAAACTAGG | 1.11 ± 0.17 |
| GCAAACTCTG | 1.12 ± 0.15 |
| GCAAATGGGA | 1.05 ± 0.017 |
| GCAAATGGGG | 1.02 ± 0.033 |
| GCAAATGTAT | 1.004 ± 0.0037 |
| GCAACAATGG | 1.08 ± 0.02 |
| GCAACATTTT | 1.01 ± 0.043 |
| GCAACGTCAA | 1.07 ± 0.076 |
| GCAACGTTCC | 1.96 ± 1.4 |
| GCAAGAACTA | 1.042 ± 0.0016 |
| GCAAGATCGC | 1.09 ± 0.02 |
| GCAAGCGGGA | 1.07 ± 0.079 |
| GCAAGGAGGG | 1.05 ± 0.14 |
| GCAAGGGGTT | 1 ± 0.063 |
| GCAAGGTAAA | 1.01 ± 0.037 |

| Sequence | switch fluorescence ratio |
| --- | --- |
| GCAAGTAGAG | 1.0067 ± 0.001 |
| GCAAGTCTGA | 1.03 ± 0.019 |
| GCAAGTTGAT | 0.96591 ± 0.00067 |
| GCAAGTTTCA | 0.996 ± 0.034 |
| GCAATAATCG | 1.98 ± 1.4 |
| GCAATAATTA | 1.1 ± 0.046 |
| GCAATATGTA | 1.62 ± 0.11 |
| GCAATGAACC | 1.84 ± 0.078 |
| GCAATGGGTG | 1.35 ± 0.027 |
| GCAATTCAGA | 1.064 ± 0.0099 |
| GCAATTGGGA | 1.05 ± 0.017 |
| GCAATTGTTT | 1.02 ± 0.039 |
| GCAATTTTAG | 1.03 ± 0.035 |
| GCAATTTTTT | 1.03 ± 0.032 |
| GCACAAGTTG | 1.02 ± 0.019 |
| GCACACGGGG | 1.01 ± 0.07 |
| GCACATGAAC | 1.1 ± 0.022 |
| GCACGAGGAA | 1.043 ± 0.0063 |
| GCACGCGAAG | 1.04 ± 0.024 |
| GCACGGAGGG | 1.01 ± 0.023 |
| GCACGGGACT | 1.184 ± 0.011 |
| GCACGGGAGG | 1.01 ± 0.032 |
| GCACGGGGCG | 1.03 ± 0.034 |
| GCACGTGACC | 1.47 ± 0.048 |
| GCACGTGCGT | 1.02 ± 0.035 |

| Sequence | switch fluorescence ratio |
| --- | --- |
| GCACTGGTGG | 1.02 ± 0.032 |
| GCACTGTGGG | 1 ± 0.016 |
| GCACTTGTTT | 1 ± 0.028 |
| GCACTTTACG | 1.28 ± 0.06 |
| GCAGAAAAAT | 1.04 ± 0.023 |
| GCAGAGGGGG | 1.04 ± 0.029 |
| GCAGAGGGTG | 1.13 ± 0.086 |
| GCAGATCGAT | 1.03 ± 0.015 |
| GCAGCATGTG | 1.04 ± 0.026 |
| GCAGCCGAAT | 1.04 ± 0.0093 |
| GCAGCTGGTG | 1.098 ± 0.00094 |
| GCAGCTGTTT | 1.02 ± 0.044 |
| GCAGGAAGTC | 0.994 ± 0.0039 |
| GCAGGAATGG | 1.113 ± 0.0098 |
| GCAGGAGTGG | 0.9929 ± 0.0088 |
| GCAGGCCTGA | 1.01 ± 0.029 |
| GCAGGCTACA | 1.02 ± 0.019 |
| GCAGGGAAGG | 1.03 ± 0.035 |
| GCAGGGAATT | 1 ± 0.045 |
| GCAGGGATTG | 0.9734 ± 0.0058 |
| GCAGGGCGCC | 1.01 ± 0.026 |
| GCAGGGGGAA | 1.08 ± 0.053 |
| GCAGGGGGCA | 1.024 ± 0.01 |
| GCAGGGGGGG | 1.05 ± 0.054 |
| GCAGGGGGTT | 1 ± 0.028 |

Reference: the supplement of paper PMC10126150
